Patent publication US5614192A, “T cell receptor peptides as therapeutics for immune-related disease” (Connective Therapeutics, Inc., priority 1993, dated 1997)
Values joined by “and” are separate entries in the source; they are usually repeats but may differ in a detail not shown here. Equal entries are not always repeated. Where two headings read alike, the source gives them in different places. Ends that are not written are not given here.

Columns and labels:
[1] = test system: clone C455-69; assay: Proliferation response of clone C455-69 to BP peptides (Table 28); format: cell-based, rat
Experimental: Proliferation assays: Proliferation assays were performed in 96-well microtiter plates. 2×10^4 T cells and 10^6 irradiated thymocytes/well were incubated with stimulation medium only, ConA, or antigen at 37C in 7% CO2. The cultures were incubated for 72 h, the last 18 h in the presence of 0.5 Bq ^3 H-Tdr. The cells were harvested onto glass fiber filters and TCR uptake was assessed by liquid scintillation. Mean CPM wre calculated from triplicate wells. The standard deviation from replicate wells varied <10% from the mean values.
the homologous RtBP sequence. Five μg/ml ConA or 50 μg/ml of each

[2] = test system: T cell lines derived from rats protected from EAE; assay: Proliferation of LN cells and T cell lines from rats protected by TCR Vβ8 peptide (Table 12); format: cell-based, rat
[3] = test system: LN cells and T cell lines; assay: Proliferation of LN cells and lines from rats protected by transfer of TCR Vβ8 peptide-specific T cells (Table 15); format: cell-based, rat
Experimental: ^1 Lymph node (LN) cells were collected 20 days after simultaneous
^2 LN cells were tested directly (NL column).
^3 T cell lines were selected from these LN cells by culture with TCR

[4] = test system: popliteal LN cells; assay: Proliferation of LN cells after EAE induction and TCR peptide treatment (Table 23); format: cell-based, Lewis rats
Experimental: The proliferative responses and specificity of T cells in the draining LN (popliteal) of rats treated with TCR Vβ8(39-59) peptide for EAE on day 13 after disease induction were examined (Table 23). On day 0, Lewis rats received an EAE-inducing regimen of GP-BP+CFA SC into their hind footpads. […] On day 20, about 7 days after onset of EAE, popliteal LNs were removed and T cell proliferative activity in response to the indicated antigens or mitogens were tested directly.
Results are shown as net ^3 Hthymidine incorporation of 5 ×

[5] = test system: peptide-selected T cells; assay: Proliferation of peptide-selected T cells after in vivo TCR peptide treatment (Table 24); format: cell-based, Lewis rats
Excerpt: LN cells from control rats responded best to Con A, PPD, GPBP and GPBP (72-89), and GPBP (45-89) (which includes the 72-89 sequence and another immunogenic but non-encephalitogenic peptide). […] LN cells from rats treated ID with the TCR peptide esponded similarly to the control cells, with the exception of a reduced response to GPBP (72-89). […] An aliquot of each of the above 3 groups of LN cells was stimulated in culture with either GPBP or with the TCR peptide for 3 days, and the cells expanded in IL-2 for 5 more days. The proliferative responses to the various antigens and mitogens of these selected T cells were examined, as above.

[6] = test system: lymph node cells and Vβ8-44-54 selected T cell line
[7] = test system: T cell immunity; assay: T cell immunity / DH response induced by peptide; format: in vivo; settings: Lewis rats
Excerpt: Immunogenicity of peptides useful in the present invention can be screened by well-known methods, such as use of a DH response in an animal. In such a response, an animal is "sensitized" by injection of an appropriate dose of an antigen, typically subcutaneously (SC), frequently with an adjuvant, such as complete Freund's adjuvant (CFA). Generally about 5-15 days later, the response is "elicited" by challenging the animal, typically intradermally (ID), with an appropriate dose of the antigen, typically in saline or other buffer. The response is assessed 24-48 hours later. […]
The desired peptides, with sequences determined as described above, are prepared using standard synthesis techniques including solution and solid phase sequential amino acid conjugation and recombinant production in prokaryotic or eukaryotic hosts. Verification that the peptide prepared is immunogenic can easily be determined using a DH reaction in an animal (e.g., mouse or rat), as described above. […] The ear swelling response, measured 24 or 48 hours after challenge, serves as a simple and reliable measure of the presence of T cell-mediated immunity to the peptide.

[8] = test system: EAE; assay: Prevention of EAE by immunization with TCR peptide (Example VI); format: in vivo, Lewis rats; settings: Lewis rats
Excerpt: EAE is a well-recognized rat model of the human autoimmune disease, multiple sclerosis. […] In this model, the disease is induced by injecting the subject rat with an encephalitogenic form of myelin basic protein, such as, for example, guinea pig basic protein (GPBP) or a synthetic peptide that corresponds to residues 72-89 of GPBP (GPBP(72-89)). Injection of either of these peptides in complete Freund's adjuvant (CFA) induces encephalitogenic T cell clones that utilize preferentially the rat homologs of mouse TCR Vα2 and Vβ8 genes (Chou, Y. K., et al., J. Neurosci. Res. 22:181-187 (1989); Burns, F. R., et al., J. Exp. Med. 169:27-39 (1989)).
^1 EAE was induced by SC challenge with 50 μg GPBP + 400 μg
^2 Rats were injected SC with either: (1) 100 μg of the TCR peptid
^3 Values represent the mean of the maximum severity of EAE. 0, no

[9] = test system: LNC and T cell lines; assay: T cell proliferation after treatment of EAE with TCR Vβ8 39-59/CFA (Table 27); format: cell-based, rats
Experimental: Lymphocyte Proliferation: Activation of T cells was measured by ^3 H-Tdy uptake. 500,000 lymph node cells or 20,000 line cells in the presence of 1 million irradiated thymic accessory cells were incubated with culture medium and antigens in microtiter wells for 18 hours prior to the addition of 0.5 μBq labeled thymidine. The cell cultures were harvested onto glass fiber filters and counted by liquid scintillation techniques. Mean CPM were calculated from triplicate cultures. Standard deviations (SD) from replicate cultures varied <10% from the mean value.
^a Treated rats were injected s.q. with 50 μg TCR Vβ839-59
^b LW cells collected after the untreated group recovered from EAE

[10] = test system: EAE; assay: Prevention and suppression of EAE by immunization with TCR Vβ8(39-59) (Table 17); format: in vivo, Lewis rats; settings: antigen alone, day 0 (no TCR peptide)
[11] = test system: EAE; assay: Prevention, suppression and treatment of EAE with TCR Vβ8-39-59 peptide (Table 25); format: in vivo, Lewis rats; settings: GP-BP/CFA only
[12] = test system: DTH response; assay: Delayed hypersensitivity responses to TCR peptides, ear swelling (Table 26); format: in vivo, Lewis rats
[13] = test system: clones C372-89 and C455-69; assay: Coculture of clones C372-89 and C455-69, proliferation (Table 31); format: cell-based, rat
Experimental: 50 μg of antigen was added to 10,000 cells of each clone stimulated in […]

[14] = 50 μg/ml peptide (5 μg/ml ConA), 20,000 clone C455-69 cells, 3 days
[15] = 1st value column (head not given; LN cells of protected rats)
[16] = 2nd value column (head not given, TCR Vβ8(39-59)-selected line)
[17] = 4th value column (head not given; mixed TCR- and BP-specific T cells)
[18] = Treated rats (TCR Vβ8 39-59/CFA at onset), LNC
[19] = Untreated rats (GPBP/CFA only), LNC
[20] = A. TCR Vβ8 peptide-specific T cell transfer
[21] = 50 μg antigen, 10,000 cells, 3 days

## APKRGSGKDSH HAARTTH (APKRGSGKDSHHAARTTH) [43-67, Gp-BP fragment 43-67 (printed from residue 50)]
[1]; [14]
  Response CPM/1000 ± S.D.: 249 ± 12 CPM/1000

## APKRGSGKDSH HAARTTHYG (APKRGSGKDSHHAARTTHYG) [50-69]
[1]; [14]
  Response CPM/1000 ± S.D.: 277 ± 14 CPM/1000

## Concanavalin A [Con A, reference compound]
[2]
  T Cell Proliferation: 99 and 96 and 80 and 123
[3]
  Proliferation, TCR Peptide Selected Line: 46
[4]
  T Cell Proliferation: 85 and 78 and 146
[5]
  Proliferative response: 76 and 52 and 68 and 95
[1]
  Response CPM/1000 ± S.D.: 229 ± 15
[6]
  Response of Lymph Node Cells: 293 ± 39
  Response of T Cell Line, percent (in parentheses): 88% and 93% and 106%

## KQNNNHNNMYWYRQDMG [Vβ8 (25-41)]
[7]
  induction of T cell immunity: does not induce T cell immunity
[8]
  protection from EAE: does not protect Lewis rats from EAE
[6]
  Response of Lymph Node Cells: 14 ± 0
  Response of T Cell Line: 6 ± 1

## LRLIHYSYDVN [Vβ8-44-54, LRLIHYSYDVN]
[6]; 72 h
  inhibition of T cell response: 76%

## SGKDSH HATRTTHYGSLPQK [55-74 modified]
[1]; [14]
  Response CPM/1000 ± S.D.: 150 ± 15 CPM/1000

B1: Rat BP: rat myelin basic protein (protein, UniProt P02688 2-195, looked up)
Myelin basic protein: ASQKRPSQRHGSKYLATASTMDHARHGFLPRHRDTGILDSIGRFFSGDRGAPKRGSGKVPWLKQSRSPLPSHARSRPGLCHMYKDSHTRTTHYGSLPQKSQRTQDENPVVHFFKNIVTPRTPPPSQGKGRGLSLSRFSWGAEGQKPGFGYGGRASDYKSAHKGFKGAYDAQGTLSKIFKLGGRDSRSGSPMARR
[2]; [15]
  T Cell Proliferation: 11 cpm × 10^-3
[2]; [16]
  T Cell Proliferation: 1 cpm × 10^-3
[2]; [17]
  T Cell Proliferation: 9 cpm × 10^-3
[2]; GPBP-selected line
  T Cell Proliferation: 9 cpm × 10^-3
[5]; day 13 inj. Control, selection with GPBP
  Proliferative response: 46
[5]; day 13 inj. TCR Vβ 8(39-59) + CFA, selection with GPBP
  Proliferative response: 14
[5]; day 13 inj. TCR Vβ 8(39-59) + CFA, selection with Vβ 8(39-59)
  Proliferative response: 4
[5]; day 13 inj. TCR Vβ 8(39-59) ID, selection with CPBP (so in the source)
  Proliferative response: 36
[9]; [18]
  Proliferation: 49 ± 2 CPM/1000
[9]; Treated rats, line BP/1st
  Proliferation: 14 ± 2 CPM/1000
[9]; Treated rats, line Vβ8/1st
  Proliferation: 4 ± 1 CPM/1000
[9]; [19]
  Proliferation: 40 ± 2 CPM/1000
[9]; Untreated rats, line BP/1st
  Proliferation: 46 ± 3 CPM/1000
[9]; Untreated rats, line Vβ8/1st
  Proliferation: 11 ± 4 CPM/1000
[1]; [14]
  Response CPM/1000 ± S.D.: 0.2 ± 0.1 CPM/1000

B2: GPBP: guinea pig basic protein, encephalitogen (protein, UniProt P25188 1-167, looked up)
Myelin basic protein: ASQKRPSQRHGSKYLATASTMDHARHGFLPRHRDTGILDSIGRFFGSDRAAPKRGSGKDSHHAARTTHYGSLPQKSQRSQDENPVVHFFKNIVTPRTPPPSQGKGRGLSLSRFSWGAEGQKPGFGYGGRADYKSKGFKGAHDAQGTLSKIFKLGGRDSRSGSPMARR
[2]; [15]
  T Cell Proliferation: 16 cpm × 10^-3
[2]; [16]
  T Cell Proliferation: 3 cpm × 10^-3
[2]; [17]
  T Cell Proliferation: 102 cpm × 10^-3
[2]; GPBP-selected line
  T Cell Proliferation: 93 cpm × 10^-3
[3]; [20]
  Proliferation, GPBP Selected Line: 16 cpm × 10^-3
  Proliferation, TCR Peptide Selected Line: 0 cpm × 10^-3
[3]; A. rats given 3 × 10^7 TCR Vβ8 peptide-specific T cells + GPBP/CFA, LN cells day 20
  Proliferation, LN: 80 cpm × 10^-3
[3]; B. Saline + GPBP/CFA
  Proliferation, GPBP Selected Line: 65 cpm × 10^-3
  Proliferation, LN: 32 cpm × 10^-3
[10]
  Clinical Score: 3.1 ± 0.6
[4]; LN cells day 20 of Control rats (saline day 13)
  T Cell Proliferation: 49 cpm × 10^-3
[4]; LN cells of rats given TCR Vβ 8(39-59) 50 μg ID day 13
  T Cell Proliferation: 44 cpm × 10^-3
[4]; LN cells of rats given TCR Vβ 8(39-59) 100 μg SC (in CFA) day 13
  T Cell Proliferation: 50 cpm × 10^-3
[11]
  Duration: 6.6 ± 0.9 days
  EAE/TOTAL: 26/26
  Max Clin. Signs: 3.4 ± 0.2
  Onset: 12
[12]; GP-BP/CFA immunized rats, ear test Day 12 (EAE onset)
  48 Hour DTH Response: 35 ± 5
[12]; Normal or saline/CFA rats, ear test Day 12
  48 Hour DTH Response: 5 ± 3
[9]; GP-MBP-selected line from TCR peptide-treated rats
  net proliferation of reactive cells: 12,000 CPM
[9]; GP-MBP-selected line from untreated EAE-recovered rats
  net proliferation of reactive cells: 84,000 CPM
[9]; [18]
  Proliferation: 50 ± 7 CPM/1000
[9]; Treated rats, line BP/1st
  Proliferation: 29 ± 6 CPM/1000
[9]; Treated rats, line Vβ8/1st
  Proliferation: 6 ± 1 CPM/1000
[9]; [19]
  Proliferation: 49 ± 5 CPM/1000
[9]; Untreated rats, line BP/1st
  Proliferation: 99 ± 9 CPM/1000
[9]; Untreated rats, line Vβ8/1st
  Proliferation: 23 ± 2 CPM/1000
[9]; Untreated rats, line Vβ14/1st
  Proliferation: 11 ± 1 CPM/1000
[1]; [14]
  Response CPM/1000 ± S.D.: 203 ± 7 CPM/1000
[13]; [21]
  Proliferation, C372-89: 40 ± 3 CPM/1000
  Proliferation, C455-69: 50 ± 9 CPM/1000
[13]; coculture, 10,000 cells of each clone
  Proliferation, C372-89 + C455-69: 91 ± 12 CPM/1000
